Measurements published in patent US20100204147A1, “Methods For Delivering Thymosin Beta 4, Analogues, Isoforms and Other Derivatives” (REGENERX BIOPHARMACEUTICALS, INC., priority 2003, published 2010).

How the values were obtained:
[1] = target: T1, recombinant γ-module (residues γ148-411) (Homo sapiens, UniProt P02679); test: ELISA and kinetic analysis of incorporation into immobilized γ-module; format: biochemical
T1 construct: comprising residues 148-411 of the human fibrinogen γ chain; made in house; host or cells: E. coli, pET20b expression vector
T1 sequence (P02679 174-437 isoform P02679-2): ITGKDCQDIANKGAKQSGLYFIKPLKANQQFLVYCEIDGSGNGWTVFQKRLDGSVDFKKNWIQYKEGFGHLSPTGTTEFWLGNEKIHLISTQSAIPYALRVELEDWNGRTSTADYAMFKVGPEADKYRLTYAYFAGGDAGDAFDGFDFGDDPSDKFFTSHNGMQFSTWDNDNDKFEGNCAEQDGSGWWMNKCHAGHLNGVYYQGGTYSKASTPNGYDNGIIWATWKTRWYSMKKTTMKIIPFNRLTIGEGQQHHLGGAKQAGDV
Description: (§1) The interaction between thymosin β4 and fibrin(ogen) and its fragments in the presence or absence of FXIIIa was studies by ELISA using plastic microliter plates. Wells of microliter plates were coated overnight at […] with fibrinogen and fibrin at 10 μg/mL or with the recombinant fragments of 20 μg/ml, all in 0.1 M NaHCO3 buffer, pH 8.3. Fibrin was made by addition to the wells of a mixture containing 10 μg/mL fibrinogen 1 NIH u/ml thrombin and 400 u/ml aprotinin, followed by overnight incubation at +4° C. The wells were then blocked by incubation with Super Blocker (Pierce) at 37° C. for 1 h. Following washing with TBS containing 0.05% Tween-20 (TBS-Tween), the indicated concentrations of thymosin β4, FXIII, FXIIIa(Thr) and FXIIIa(Ca) were added to the wells and incubated for 2-2.5 h at 37° C. Bound (incorporated) thymosin β4 was detected by the reaction with rabbit anti-thymosin β4 serum and peroxidase-conjugated anti-rabbit IgG. A TMB Microwell Peroxidase Substrase was added to the wells, and the incorporated thymosin β4 was measured spectrophotometrically at 450 nm.
(§2) To analyze kinetics of the incorporation of thymosin β4 into different fibrin(ogen) fragments, they were immobilized onto the wells of microliter plates (as described above, except that the concentration of all fragments was 20 μg/mL) and incubated with several concentrations of thymosin β4 in the presence of 10 μg/L thrombin-activated factor XIIIa. The incubation mixtures were inhibited every 15 min during 1 hour of incubation by the addition of iodacetamide to final concentration 10 mM. Incorporated thymosin β4 at each time point was detected with rabbit anti-thymosin β4 serum as described above. The initial rates of the reaction of incorporation (V) at different concentrations of thymosin β4 were determined from the slopes of the reaction time course plots and expressed as tangent α=A450/t (min), where A450 represents absorbance at 450 nm in optical units (o.u) which is proportional to the amount of incorporated thymosin β4. […]

Aα392-610 sub-fragment = target: T2, Aα392-610 sub-fragment (Homo sapiens, UniProt P02671); test: ELISA and kinetic analysis of incorporation into immobilized Aα392-610 sub-fragment; format: biochemical
T2 construct: (residues Aα221-391 and Aα392-610, respectively); made in house; host or cells: E. coli, pET20b expression vector
T2 sequence (P02671 411-629): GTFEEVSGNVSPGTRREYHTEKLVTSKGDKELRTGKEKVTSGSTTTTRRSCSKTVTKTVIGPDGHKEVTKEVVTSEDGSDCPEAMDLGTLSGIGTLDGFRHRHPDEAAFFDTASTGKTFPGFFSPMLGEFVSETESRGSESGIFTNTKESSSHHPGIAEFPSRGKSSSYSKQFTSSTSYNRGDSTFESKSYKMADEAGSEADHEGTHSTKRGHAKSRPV
Description: as §1, §2

[2] = non-activated factor XIII or without it

For thymosin β4, the “non-covalent interaction with γ-module (ELISA)” value [1, 2] was “no significant non-covalent interaction”, the “incorporation into immobilized γ-module (ELISA)” value ([1]; presence of factor XIIIa) was “incorporated effectively” and the Km ([1]; thrombin-activated factor XIIIa, Lineweaver-Burk plot, read-out: apparent Michaelis constant (Km) for incorporation into the γ-module) was 183 ± 29 µM. For the same substance, the “non-covalent interaction with Aα392-610 sub-fragment (ELISA)” value (Aα392-610 sub-fragment; [2]) was “no significant non-covalent interaction”, the “incorporation into immobilized Aα392-610 sub-fragment (ELISA)” value (Aα392-610 sub-fragment; presence of factor XIIIa) was “incorporated effectively” and the Km (Aα392-610 sub-fragment; thrombin-activated factor XIIIa, Lineweaver-Burk plot, read-out: apparent Michaelis constant (Km) for incorporation into the Aα392-610 sub-fragment) was 8.6 ± 3.7 µM.
